Measured values reported in PMC3905071.

What was measured:
[1] = molecular target: YB-1 (WT) (UniProt P67809 1-324); assay: EMSA and filter binding
[2] = molecular target: YB-1 (1-219), truncated (UniProt P67809 1-219); assay: EMSA and filter binding
Sequence of YB-1 (1-219), truncated (P67809 1-219): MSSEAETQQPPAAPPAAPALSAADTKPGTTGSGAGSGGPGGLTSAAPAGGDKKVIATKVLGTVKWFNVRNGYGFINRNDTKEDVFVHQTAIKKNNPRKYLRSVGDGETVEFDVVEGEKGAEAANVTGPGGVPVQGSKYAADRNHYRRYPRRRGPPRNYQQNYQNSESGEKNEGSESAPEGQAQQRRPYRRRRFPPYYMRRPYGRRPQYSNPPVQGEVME

Sequence of YB-1 (WT) (P67809 whole entry, the tested form may be a part): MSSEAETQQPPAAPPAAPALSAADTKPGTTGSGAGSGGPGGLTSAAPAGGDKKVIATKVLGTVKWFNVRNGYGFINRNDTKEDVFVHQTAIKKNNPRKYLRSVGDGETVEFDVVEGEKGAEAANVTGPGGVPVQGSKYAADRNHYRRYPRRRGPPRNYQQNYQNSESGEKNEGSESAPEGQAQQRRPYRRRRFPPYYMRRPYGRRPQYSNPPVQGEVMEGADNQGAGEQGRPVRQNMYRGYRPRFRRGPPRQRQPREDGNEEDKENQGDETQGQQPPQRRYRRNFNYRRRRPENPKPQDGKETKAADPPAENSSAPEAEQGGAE

B1: 18-nt Y-box ssDNA (ssDNA)
DNA: AAACTGATTGGCCAAAAA
Question: Does B1 bind [1]?
Answer: Result: binds

Question: Does B1 bind [2]?
Answer: Result: binds
